A short description of the series: protein stability index of a GFP-peptide fusion (GPS, HEK-293T) (PSI 1-6); higher = more stable.
Where [1] appears, read: treatment: DMSO, c terminus: a fixed tail appended.
The mark [2] stands for this setting: treatment: MLN4924 1 uM, 8 h, c terminus: a fixed tail appended.
[3] abbreviates: treatment: DMSO, c terminus: native.
[4] abbreviates: treatment: MLN4924 1 uM, 8 h, c terminus: native.

The record followed here is the supplement of paper PMC10567573.

± gives the standard deviation.
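Also: 24-mer peptide tiles fused after GFP, lentivirally expressed, FACS-sorted into six equal bins by GFP/DsRed ratio, decoded by Illumina sequencing, PSI is the read-weighted mean bin number.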

For KLAKVYSYAHGWMFQGWNCGDYFP [CPN1], the protein stability index reads like this: under setting [1], 2.52 ± 0.43; under setting [2], 2.52 ± 0.38.

PESVEASPVVVEKSNSYPHQLYTS [KMT2E] returned a protein stability index under setting [1] of 4.34 ± 0.32 and a protein stability index under setting [2] of 4.44 ± 0.26.

Take GPSVSEPPGLPRVSAYVDTTADLD [SPATS1]: the protein stability index is, setting by setting: under setting [1], 5.16 ± 0.41; under setting [2], 5.18 ± 0.25.

Regarding LRKAVLKNLYKLASQCCGVHVISL [PTGFR], the protein stability index is, setting by setting: under setting [1], 2.79 ± 0.5; under setting [2], 2.73 ± 0.99.

Turning to QHSHVVRYFSAWAEDDHMLIQNEY [WEE1], the protein stability index by setting is: under setting [1], 2.22 ± 0.14; under setting [2], 2.24 ± 0.12.

Regarding DILPIHPPSGNSDLDPDAQNPML [BTBD10], the protein stability index by setting is: under setting [3], 5.46 ± 0.17; under setting [4], 5.21 ± 0.22.

Turning to LRSFEGLMGTIKSKVSGGKRAWP [TPD52L3], the protein stability index reads like this: under setting [3], 2.94 ± 0.91; under setting [4], 3.63 ± 0.26.

With ESSQKYKEGKYIIELNHMIKDNGW [YPEL3], the protein stability index came to 3.04 ± 0.21 under setting [1] and 3.08 ± 0.27 under setting [2].

Turning to FRGFPPEDLMPLAAAYGHALEQYE [P3H4], the protein stability index reads like this: under setting [1], 2.8 ± 0.36; under setting [2], 3.08 ± 0.16.

As to SRAANQEQRANDLEQIMESVKSKI [CEP70], the protein stability index is 4.44 ± 0.22 under setting [1] and 4.49 ± 0.14 under setting [2].

As for NGSCENSDASSHANAAKHTQDSAR [EHMT1], the protein stability index reads like this: under setting [1], 5.27 ± 0.37; under setting [2], 5.3 ± 0.2.

With EEHGLQQERPRPEPGRLGSSSPAS [PXN], the protein stability index is, setting by setting: under setting [1], 5.25 ± 0.43; under setting [2], 5.1 ± 0.15.

Take CHHGLVADSLQASMEKDATLNVDR [DLC1]: the protein stability index is, setting by setting: under setting [1], 4.35 ± 0.12; under setting [2], 4.47 ± 0.25.

Consider KLFYFKIWAFLDVSFVERILKSQK [FBXO39], for which the protein stability index turned out to be 2.62 ± 0.74 under setting [1] and 2.47 ± 0.5 under setting [2].

As for APFPNVSTSLLTSAGNRTHKARTR [ADAMTSL2], the protein stability index reads like this: under setting [1], 4.68 ± 0.25; under setting [2], 4.64 ± 0.29.

In the case of TLPEYRVSVPENLPVGTQLLTVTA [PCDHGA10], the protein stability index reads like this: under setting [1], 3.36 ± 0.29; under setting [2], 3.24 ± 0.3.

In turn, FNYLHTNCFEITLELSCDKFPPEE [CPN1] gave a protein stability index under setting [1] of 2.5 ± 0.51 and a protein stability index under setting [2] of 2.09 ± 0.42.

Take LHYAAASDMDRNKTILGNAHDNSE [ANKRD44]: the protein stability index under setting [1] came out at 4.76 ± 0.15 and the protein stability index under setting [2] is 4.9 ± 0.044.

In turn, SEFRALQFSLMLCAFVGALGGAAF [SPNS1] returned a protein stability index under setting [1] of 3.14 ± 0.048 and a protein stability index under setting [2] of 3.04 ± 0.79.

ELAPDFVGDILWEHLEILQKEDVK [ETS1]: the protein stability index came out at 3.95 ± 0.48 under setting [1] and 4.17 ± 0.29 under setting [2].

Regarding ARGDAVCTACGSVLEDNIIVSEVQ [BRF1], the protein stability index is, setting by setting: under setting [1], 4.38 ± 0.19; under setting [2], 4.34 ± 0.077.

Take ARGPGPEGGGGGSYFSGQGSDTGA [JUNB]: the protein stability index stood at 5.11 ± 0.27 under setting [1] and 4.91 ± 0.18 under setting [2].

Take DDLMGILCKSVLEIERAIKQTQCP [FEM1C]: the protein stability index reads like this: under setting [1], 2.07 ± 0.22; under setting [2], 2.46 ± 0.29.

On to PLMVASAQSGERECHIVVLTDDDV [BTBD10], for which the protein stability index was found to be 3.71 ± 0.32 under setting [1] and 3.92 ± 0.15 under setting [2].

In the case of QRDGSKSEDELDQASTPTDVRDID [CCND2], the protein stability index runs as follows: under setting [1], 5.62 ± 0.16; under setting [2], 5.62 ± 0.14.

EENRLREELRQEWEAKQEKIKSEE [FAM50A] yielded a protein stability index under setting [1] of 5.59 ± 0.14 and a protein stability index under setting [2] of 5.52 ± 0.21.

As for FYQSPYDSEQVPQALRRLRPRTRK [NCF4], the protein stability index reads like this: under setting [1], 4.63 ± 0.37; under setting [2], 4.68 ± 0.3.

In the case of TMTSSQSMNFSMMSTNTVGLGLPM [CLINT1], the protein stability index runs as follows: under setting [1], 3.02 ± 0.18; under setting [2], 2.68 ± 0.083.

Turning to GAYSSASSFSRPLGYPYVNSVSSH [DLX1], the protein stability index by setting is: under setting [1], 3.1 ± 0.15; under setting [2], 3.12 ± 0.25.

Turning to HIKEILITAGGENVPPIPVETLVK [ACSBG2], the protein stability index reads like this: under setting [1], 2.71 ± 0.38; under setting [2], 2.88 ± 0.2.

For the sequence EDPEENPYGPPPDAVQTSLMDEGA [RBBP5], the protein stability index was 5.56 ± 0.33 under setting [1] and 5.46 ± 0.29 under setting [2].

Take TRAILRERICSEEERAKAKHLARQ [CHCHD3]: the protein stability index under setting [1] worked out at 3.52 ± 0.33 and the protein stability index under setting [2] came to 3.76 ± 0.27.

As for WEPRRDMWVRFRAFEAARDLDACA [ZSWIM9], the protein stability index turned out to be 2.79 ± 0.34 under setting [1] and 2.72 ± 0.2 under setting [2].

Take KYSLLKLTALLEKYTPSNKHGFSW [DLC1]: the protein stability index reads like this: under setting [1], 2.65 ± 0.42; under setting [2], 2.6 ± 0.61.

Turning to RLDKHLYVIGGRNETGYLSSVECY [KLHL14], the protein stability index was 2.28 ± 0.17 under setting [1] and 2.14 ± 0.2 under setting [2].

With RAWSQCGGGGLRAWSQRSAAGRVC [CPOX], the protein stability index was 2.71 ± 0.077 under setting [1] and 2.88 ± 0.37 under setting [2].

In the case of VGWWALLALVTLLSFATRFHRLDE [POMT2], the protein stability index was found to be 3.42 ± 0.39 under setting [1] and 2.98 ± 0.39 under setting [2].

For the sequence LVNTSENLSKSRKILRSMSRKVTT [VTI1B], the protein stability index is, setting by setting: under setting [1], 3.33 ± 0.29; under setting [2], 3.57 ± 0.22.

As for YTYRDYGHSSSRDDYPSRGYSDRD [RBMX], the protein stability index under setting [1] came out at 3.94 ± 0.3 and the protein stability index under setting [2] is 4.02 ± 0.26.

GLRKRIATLFFHYIKTPLFNPEVA [IQUB]: the protein stability index by setting is: under setting [1], 2.12 ± 0.36; under setting [2], 2.19 ± 0.74.

For the sequence TEPPVALAPGPAPTRCLPGHKEEE [ESRRA], the protein stability index reads like this: under setting [1], 5.28 ± 0.12; under setting [2], 5.36 ± 0.34.

For the sequence LSLVLGNVNVTLLSKQAKFAYKDE [TMEM120A], the protein stability index is 2.59 ± 0.53 under setting [1] and 2.23 ± 0.28 under setting [2].

Regarding SNANYSVKKCIFLLFINHRLVEST [MLH1], the protein stability index was 3.35 ± 0.46 under setting [1] and 3.25 ± 1.2 under setting [2].

As for LLEEGGLVQVESVNLQVATYSKFQ [UFD1], the protein stability index is 2.85 ± 0.32 under setting [1] and 2.9 ± 0.31 under setting [2].

On to YKCLECGKAFSQNSGLINHQRIHT [ZNF24], for which the protein stability index turned out to be 4.95 ± 0.23 under setting [1] and 4.57 ± 0.26 under setting [2].

Sequence RADQLCQQELRELRRELELLGRER [PRPH] registered a protein stability index under setting [1] of 3.45 ± 0.17 and a protein stability index under setting [2] of 3.37 ± 0.56.

On to MAVLEEIQQELIKQEQSIISEYEK [RPAIN], for which the protein stability index was 4.28 ± 0.16 under setting [1] and 4.47 ± 0.16 under setting [2].

In the case of MRMSDTVTVKDETATMKDLEAEVK [R3HDM1], the protein stability index under setting [1] was 5.46 ± 0.072 and the protein stability index under setting [2] was 5.37 ± 0.092.

RDLPDTPRRFTFYPCVLATEGFTS [TRIM39] registered a protein stability index under setting [1] of 2.56 ± 0.21 and a protein stability index under setting [2] of 2.5 ± 0.2.

AAPLPERNSLSAIFNNVMTLCAML [SLC29A1] returned a protein stability index under setting [1] of 2.57 ± 0.14 and a protein stability index under setting [2] of 2.57 ± 0.31.

As to DAAEEEKYDMEVRVQKTSKELEDM [TNNI2], the protein stability index under setting [1] is 5.45 ± 0.24 and the protein stability index under setting [2] was found to be 5.46 ± 0.17.

On to PAPTATVPAPQPPVTKPLFPSAGQ [ZNF207], for which the protein stability index was determined as 4.82 ± 0.39 under setting [1] and 4.8 ± 0.18 under setting [2].

Take LGIPKSTTSDIPHMLNQVESKVKD [FAM98B]: the protein stability index reads like this: under setting [1], 5.04 ± 0.27; under setting [2], 5.23 ± 0.11.

As to NKTEVTPRLWTTCRDGEVLLRLSK [ACSBG2], the protein stability index was 2.4 ± 0.22 under setting [1] and 2.37 ± 0.21 under setting [2].

For the sequence RGGMLSASAETLPAGFRVSTLGTL [PPFIA4], the protein stability index turned out to be 3.26 ± 0.14 under setting [1] and 3.57 ± 0.49 under setting [2].

Turning to MTELRQRVAHEPVAPPEDKESESE [CDS2], the protein stability index was found to be 5.39 ± 0.26 under setting [1] and 5.44 ± 0.23 under setting [2].

Regarding SQYQCENGVSGPSQDLLPPPNPYP [TBX5], the protein stability index under setting [1] was 4.75 ± 0.16 and the protein stability index under setting [2] was determined as 4.64 ± 0.14.

With RRVGGSRILLRMTLGREVMSPLQA [NLN], the protein stability index by setting is: under setting [1], 2.15 ± 0.32; under setting [2], 2.34 ± 0.35.

Turning to PEIEKADDHLQQPLQNQKILKRTG [ZNF649], the protein stability index was 5.3 ± 0.29 under setting [1] and 5.5 ± 0.24 under setting [2].

Turning to VEFNHTGELLATGDKGGRVVIFQR [PPP2R2C], the protein stability index by setting is: under setting [1], 2.54 ± 0.59; under setting [2], 2.85 ± 0.44.

For the sequence IGVGLGFELQRLEFDLSPLNLDIG [AASDHPPT], the protein stability index runs as follows: under setting [1], 2.3 ± 0.55; under setting [2], 2.29 ± 0.24.

For WSPSPPATPEQGLSAFYLSYFDML [SPDEF], the protein stability index is, setting by setting: under setting [1], 2.14 ± 0.45; under setting [2], 2.33 ± 0.48.

On to DQENFQGKRMEFTSSCPNVSERSF [CRYBA1], for which the protein stability index is 4.49 ± 0.12 under setting [1] and 4.46 ± 0.24 under setting [2].

For the sequence FPGPQEHTQVLPDVRLLPRRLPLA [DYRK1B], the protein stability index by setting is: under setting [1], 3.37 ± 0.083; under setting [2], 3.58 ± 0.2.

For PSSNEEIRLVDDAFGKICHMVSDG [INTS4], the protein stability index was 4.18 ± 0.23 under setting [1] and 4.5 ± 0.2 under setting [2].

Turning to LREKLLEAEQSLRNLEDIHMSLEK [TEKT4], the protein stability index under setting [1] came to 3.03 ± 0.52 and the protein stability index under setting [2] turned out to be 3.3 ± 0.63.

As to GSIMTVWLSTAPTEPLTHWYQVRC [CARM1], the protein stability index was found to be 2.74 ± 0.99 under setting [1] and 2.84 ± 0.23 under setting [2].

With LVAEILPAPGKLLGPCVVGYGIYY [SAT2], the protein stability index by setting is: under setting [1], 2.66 ± 0.94; under setting [2], 2.53 ± 0.44.

In the case of LISKLPYIHFFHTVLKQIAPEYFE [DENND6A], the protein stability index was determined as 2.64 ± 0.28 under setting [1] and 2.37 ± 0.63 under setting [2].

As for FHNCLIQLYCEKVQGLMKEYLLSF [VPS39], the protein stability index worked out at 2.96 ± 0.26 under setting [1] and 3.2 ± 0.7 under setting [2].

Consider YEAQDGRGPDNALLEATGGAAGRS [KCTD10], for which the protein stability index is, setting by setting: under setting [1], 5.37 ± 0.34; under setting [2], 5.41 ± 0.25.

On to NKKAKRYLLHGLECVVAMHQAQLI [EIF5], for which the protein stability index runs as follows: under setting [1], 3.02 ± 0.47; under setting [2], 2.5 ± 0.4.
